# According to the supplement of paper PMC9112550, “Optimization of the antimicrobial peptide Bac7 by deep mutational scanning” (BMC Biology, 2022):
# Test system: Escherichia coli TOP10
# Assay: shrunken log2 fold change of peptide-encoding DNA abundance (4.5 h post-induction vs induction); higher = less antimicrobial activity (less host growth inhibition)
# Details: time post-induction: 4.5 h; library: site-saturation at positions 5, 18, 19, 20
# 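Further: peptides expressed intracellularly from a pBAD plasmid library in pooled LB shake-flask culture, induced with 0.3% L-arabinose, DNA abundance read by NGS, three biological replicates, DESeq2 with apeglm shrinkage.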
row,Sequence,shrunken log2 fold change
1,RRIRTRPPRLPRPRPRPMDFPRP,0.0159
2,RRIRCRPPRLPRPRPRPRQCPRP,0.0586
3,RRIRGRPPRLPRPRPRPNHFPRP,-0.0611
4,RRIRIRPPRLPRPRPRPDLCPRP,-0.101
5,RRIRIRPPRLPRPRPRPNLLPRP,-0.309
6,RRIRMRPPRLPRPRPRPVFPPRP,0.0941
7,RRIRGRPPRLPRPRPRPSNAPRP,0.216
8,RRIRFRPPRLPRPRPRPVDIPRP,-0.338
9,RRIRGRPPRLPRPRPRPSRQPRP,0.133
10,RRIRCRPPRLPRPRPRPMSSPRP,0.0481
11,RRIRRRPPRLPRPRPRPFVVPRP,0.0981
12,RRIRARPPRLPRPRPRPDPDPRP,1.3
13,RRIRRRPPRLPRPRPRPCWYPRP,-0.112
14,RRIRYRPPRLPRPRPRPNQIPRP,-0.0468
15,RRIRVRPPRLPRPRPRPAQAPRP,0.74
16,RRIRERPPRLPRPRPRPQMTPRP,-0.312
17,RRIRFRPPRLPRPRPRPFHVPRP,-0.546
18,RRIRHRPPRLPRPRPRPNNSPRP,-1.11
19,RRIRNRPPRLPRPRPRPVNYPRP,-0.179
20,RRIRPRPPRLPRPRPRPGRYPRP,0.37
21,RRIRIRPPRLPRPRPRPPPNPRP,0.776
22,RRIRCRPPRLPRPRPRPTDYPRP,1.93
23,RRIRLRPPRLPRPRPRPCLKPRP,-0.682
24,RRIRWRPPRLPRPRPRPVYPPRP,-0.104
25,RRIRKRPPRLPRPRPRPTQRPRP,1.13

row,Sequence,shrunken log2 fold change
1,RRIRWRPPRLPRPRPRPIYNPRP,-0.896
2,RRIRPRPPRLPRPRPRPRPVPRP,0.528
3,RRIRGRPPRLPRPRPRPPEPPRP,0.397
4,RRIRIRPPRLPRPRPRPQAYPRP,0.0364
5,RRIRFRPPRLPRPRPRPYLWPRP,-0.309
6,RRIRERPPRLPRPRPRPGRTPRP,0.251
7,RRIRTRPPRLPRPRPRPWWPPRP,-0.0247
8,RRIRGRPPRLPRPRPRPLMTPRP,2.81
9,RRIRTRPPRLPRPRPRPPIPPRP,0.128
10,RRIRPRPPRLPRPRPRPTPRPRP,0.769
11,RRIRGRPPRLPRPRPRPKRPPRP,0.969
12,RRIRQRPPRLPRPRPRPCMMPRP,-0.498
13,RRIRPRPPRLPRPRPRPLPSPRP,0.0677
14,RRIRCRPPRLPRPRPRPKYVPRP,-0.394
15,RRIRFRPPRLPRPRPRPGPIPRP,0.218
16,RRIRIRPPRLPRPRPRPWMSPRP,-0.266
17,RRIRSRPPRLPRPRPRPWAVPRP,-0.0517
18,RRIRARPPRLPRPRPRPPDTPRP,0.764
19,RRIRYRPPRLPRPRPRPEVHPRP,-0.187
20,RRIRVRPPRLPRPRPRPSQQPRP,-0.116
21,RRIRCRPPRLPRPRPRPNQEPRP,-0.0562
22,RRIRLRPPRLPRPRPRPHPTPRP,-0.094
23,RRIRKRPPRLPRPRPRPCTCPRP,0.00906
24,RRIRARPPRLPRPRPRPICKPRP,-0.159
25,RRIRYRPPRLPRPRPRPGNGPRP,-0.234

row,Sequence,shrunken log2 fold change
1,RRIRSRPPRLPRPRPRPSIEPRP,-0.013
2,RRIRWRPPRLPRPRPRPRAQPRP,0.56
3,RRIRQRPPRLPRPRPRPGIMPRP,-0.0424
4,RRIRPRPPRLPRPRPRPLFNPRP,-0.444
5,RRIRVRPPRLPRPRPRPPELPRP,0.186
6,RRIRYRPPRLPRPRPRPETDPRP,-0.021
7,RRIRVRPPRLPRPRPRPNQWPRP,-0.264
8,RRIRHRPPRLPRPRPRPYEKPRP,-0.195
9,RRIRRRPPRLPRPRPRPVIWPRP,0.185
10,RRIRWRPPRLPRPRPRPVIAPRP,0.037
11,RRIRFRPPRLPRPRPRPINYPRP,-0.0562
12,RRIRQRPPRLPRPRPRPKKVPRP,-0.0514
13,RRIRARPPRLPRPRPRPHLAPRP,0.298
14,RRIRYRPPRLPRPRPRPKVFPRP,0.149
15,RRIRARPPRLPRPRPRPRHGPRP,0.343
16,RRIRVRPPRLPRPRPRPSQNPRP,-0.242
17,RRIRGRPPRLPRPRPRPGHMPRP,-0.129
18,RRIRHRPPRLPRPRPRPTEGPRP,-0.00285
19,RRIRIRPPRLPRPRPRPKRWPRP,-0.0451
20,RRIRPRPPRLPRPRPRPDNEPRP,-0.0784
21,RRIRNRPPRLPRPRPRPRSRPRP,0.177
22,RRIRSRPPRLPRPRPRPSTNPRP,-0.546
23,RRIRARPPRLPRPRPRPQMEPRP,-0.154
24,RRIRIRPPRLPRPRPRPRFGPRP,0.174
25,RRIRKRPPRLPRPRPRPPRDPRP,1.01

row,Sequence,shrunken log2 fold change
1,RRIRTRPPRLPRPRPRPNHIPRP,-0.825
2,RRIRRRPPRLPRPRPRPECMPRP,0.921
3,RRIRNRPPRLPRPRPRPSDMPRP,-0.117
4,RRIRNRPPRLPRPRPRPKTSPRP,-0.0653
5,RRIRHRPPRLPRPRPRPCESPRP,0.0295
6,RRIRIRPPRLPRPRPRPSPGPRP,-0.552
7,RRIRKRPPRLPRPRPRPILGPRP,0.00783
8,RRIRFRPPRLPRPRPRPYKPPRP,0.108
9,RRIRTRPPRLPRPRPRPFLNPRP,-0.183
10,RRIRKRPPRLPRPRPRPFKMPRP,-0.231
11,RRIRCRPPRLPRPRPRPPFVPRP,0.145
12,RRIRNRPPRLPRPRPRPCPKPRP,0.0342
13,RRIRMRPPRLPRPRPRPLTDPRP,1.69
14,RRIRFRPPRLPRPRPRPLNDPRP,-0.839
15,RRIRHRPPRLPRPRPRPPLHPRP,0.0208
16,RRIRFRPPRLPRPRPRPEEPPRP,0.248
17,RRIRKRPPRLPRPRPRPQESPRP,-0.00973
18,RRIRHRPPRLPRPRPRPVPHPRP,-0.031
19,RRIRVRPPRLPRPRPRPVETPRP,0.0754
20,RRIRARPPRLPRPRPRPMYRPRP,-0.0452
21,RRIRKRPPRLPRPRPRPEENPRP,-0.00213
22,RRIRHRPPRLPRPRPRPWTNPRP,-0.101
23,RRIRARPPRLPRPRPRPWQMPRP,-0.0506
24,RRIRFRPPRLPRPRPRPSVTPRP,-0.322
25,RRIRGRPPRLPRPRPRPQKYPRP,-0.0606

row,Sequence,shrunken log2 fold change
1,RRIRERPPRLPRPRPRPKNHPRP,-0.499
2,RRIRARPPRLPRPRPRPKFSPRP,0.173
3,RRIRDRPPRLPRPRPRPQHIPRP,-0.762
4,RRIRCRPPRLPRPRPRPRWFPRP,0.0519
5,RRIRGRPPRLPRPRPRPMTDPRP,0.603
6,RRIRFRPPRLPRPRPRPPPQPRP,1.33
7,RRIRWRPPRLPRPRPRPDWRPRP,-0.0316
8,RRIRTRPPRLPRPRPRPTAEPRP,0.458
9,RRIRNRPPRLPRPRPRPATSPRP,-0.214
10,RRIRPRPPRLPRPRPRPRYNPRP,-0.522
11,RRIRRRPPRLPRPRPRPSTAPRP,0.297
12,RRIRRRPPRLPRPRPRPILVPRP,-0.106
13,RRIRPRPPRLPRPRPRPAPPPRP,0.726
14,RRIRTRPPRLPRPRPRPHCFPRP,-0.102
15,RRIRIRPPRLPRPRPRPWACPRP,-0.406
16,RRIRDRPPRLPRPRPRPWFYPRP,-0.0139
17,RRIRHRPPRLPRPRPRPANRPRP,-0.129
18,RRIRRRPPRLPRPRPRPYPWPRP,-0.101
19,RRIRMRPPRLPRPRPRPQYVPRP,-0.0961
20,RRIRPRPPRLPRPRPRPDCEPRP,0.0556
21,RRIRARPPRLPRPRPRPVYVPRP,0.111
22,RRIRNRPPRLPRPRPRPSMYPRP,-0.309
23,RRIRSRPPRLPRPRPRPLFPPRP,-0.00148
24,RRIRVRPPRLPRPRPRPVWNPRP,0.152
25,RRIRERPPRLPRPRPRPCAWPRP,-0.0536

row,Sequence,shrunken log2 fold change
1,RRIRARPPRLPRPRPRPCFYPRP,-0.218
2,RRIRDRPPRLPRPRPRPSDRPRP,0.159
3,RRIRNRPPRLPRPRPRPEQLPRP,0.389
4,RRIRSRPPRLPRPRPRPQGRPRP,-0.0801
5,RRIRLRPPRLPRPRPRPTKAPRP,0.0258
6,RRIRYRPPRLPRPRPRPTGSPRP,0.0529
7,RRIRLRPPRLPRPRPRPDPRPRP,0.603
8,RRIRWRPPRLPRPRPRPRAYPRP,0.224
9,RRIRPRPPRLPRPRPRPKVYPRP,-0.292
10,RRIRFRPPRLPRPRPRPKNAPRP,-0.0814
11,RRIRHRPPRLPRPRPRPEWPPRP,0.228
12,RRIRLRPPRLPRPRPRPMYLPRP,0.0092
13,RRIRWRPPRLPRPRPRPAETPRP,0.0775
14,RRIRWRPPRLPRPRPRPNNEPRP,-0.0931
15,RRIRFRPPRLPRPRPRPTCMPRP,-0.0546
16,RRIRKRPPRLPRPRPRPSACPRP,-0.0843
17,RRIRFRPPRLPRPRPRPYRLPRP,0.0227
18,RRIRERPPRLPRPRPRPAENPRP,-0.27
19,RRIRSRPPRLPRPRPRPCFTPRP,-0.521
20,RRIRYRPPRLPRPRPRPYRDPRP,-0.0114
21,RRIRNRPPRLPRPRPRPQYSPRP,-0.232
22,RRIRMRPPRLPRPRPRPNVCPRP,-0.00865
23,RRIRDRPPRLPRPRPRPALEPRP,0.659
24,RRIRMRPPRLPRPRPRPWYYPRP,-0.0257
25,RRIRHRPPRLPRPRPRPYVYPRP,-0.0796
